Test results as given in paper PMC10182070, “Ligand dependent interaction between PC-TP and PPARδ mitigates diet-induced hepatic steatosis in male mice” (Nature Communications, 2023).
Positions count from the first letter of the chain named. Names and notes keep the numbering of the source.

T1: purified PPARδ ligand-binding domain (LBD), Cy5-labelled (human, Cy5 fluorophore (NHS) on lysine amines)
T1 chain: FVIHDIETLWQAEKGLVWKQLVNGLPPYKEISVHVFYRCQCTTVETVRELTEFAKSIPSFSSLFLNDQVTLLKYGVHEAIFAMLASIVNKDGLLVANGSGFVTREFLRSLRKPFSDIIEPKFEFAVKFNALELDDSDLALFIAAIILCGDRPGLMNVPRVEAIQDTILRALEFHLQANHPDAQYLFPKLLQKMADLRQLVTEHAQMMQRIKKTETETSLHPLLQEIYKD

T2: purified full-length PPARδ, Cy5-labelled (human, UniProt Q03181 1-441, Cy5 fluorophore (NHS) on lysine amines)
T2 construct: Full-length PPARδ in PSMT3 vector; also called FL-PPARδ; full-length (FL) PPARδ; source: E. coli BL21 DE3, purified (IMAC, Capto S and Capto Q, Superdex 75 SEC)
T2 sequence (looked up): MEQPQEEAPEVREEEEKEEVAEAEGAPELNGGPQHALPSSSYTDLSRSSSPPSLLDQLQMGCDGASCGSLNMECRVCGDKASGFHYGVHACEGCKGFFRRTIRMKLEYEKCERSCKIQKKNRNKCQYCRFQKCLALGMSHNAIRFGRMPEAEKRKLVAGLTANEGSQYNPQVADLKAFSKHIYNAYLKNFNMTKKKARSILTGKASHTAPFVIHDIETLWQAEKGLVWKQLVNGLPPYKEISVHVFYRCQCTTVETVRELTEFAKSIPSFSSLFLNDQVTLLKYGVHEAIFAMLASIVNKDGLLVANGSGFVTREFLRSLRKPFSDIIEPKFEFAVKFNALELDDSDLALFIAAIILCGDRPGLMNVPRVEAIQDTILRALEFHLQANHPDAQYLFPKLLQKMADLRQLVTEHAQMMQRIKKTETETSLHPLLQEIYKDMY

T3: full-length PPARδ, split nano-luciferase (nano-PCA) fusion (human, UniProt Q03181 1-441)
T3 construct: wild-type human PPARδ, printed as residues 1-470; The clones of the HEK293T screen are not described; also called FL-PPARδ; intact PPARδ; source: HEK293T (screen) and Huh7, transfected, in cells
T3 sequence (looked up): T2 sequence (looked up)

B1: purified PC-TP (natural protein, human)
chain: MELAAGSFSEEQFWEACAELQQPALAGADWQLLVETSGISIYRLLDKKTGLYEYKVFGVLEDCSPTLLADIYMDSDYRKQWDQYVKELYEQECNGETVVYWEVKYPFPMSNRDYVYLRQRRDLDMEGRKIHVILARSTSMPQLGERSGVIRVKQYKQSLAIESDGKKGSKVFMYYFDNPGGQIPSWLINWAAKNGVPNFLKDMARACQNYLKKT
notes: PC-TP coding region in pMCSG7; the structure of PC-TP solved here is PDB 7U9D; 0.01% soy lecithin was added to the cultures at induction; also called LTP; source: E. coli BL21 DE3, purified (IMAC, Superdex 75 SEC)
B2: PC-TP R78E, split nano-luciferase (nano-PCA) fusion (natural protein, human, UniProt Q9UKL6 1-214, looked up)
chain: B1 chain with R78E
notes: source: Huh7, transfected, in cells
B3: PC-TP R120H, split nano-luciferase (nano-PCA) fusion (natural protein, human, UniProt Q9UKL6 1-214, looked up)
chain: B1 chain with R120H
notes: as for B2
B4: PC-TP Y114R, split nano-luciferase (nano-PCA) fusion (natural protein, human, UniProt Q9UKL6 1-214, looked up)
chain: B1 chain with Y114R
notes: as for B2

What was measured:
[1] = target: T1, purified PPARδ ligand-binding domain …
[2] = target: T2, purified full-length PPARδ, Cy5-labelled; experiment: temperature related intensity change (TRIC); 50 nM Cy5-labelled FL-PPARδ or PPARδ LBD with LTPs (10 µM-610 pM), overnight at 4 °C; 20 mM Hepes pH 8.3, 200 mM NaCl, 5% glycerol, 0.05% tween-20, 0.5 mM TCEP; Dianthus NT.23 Pico; details: both partners purified
[3] = target: T3, full-length PPARδ, split …; experiment: split reporter (BiFC, NanoBiT); nano-PCA in transfected Huh7 cells (100 ng/well of each fusion); fresh culture media or DMEM F-12 with 0.5% serum (mutant panel in 0.5% serum); signal normalized to the highest negative control; details: partners not purified

| Binder | Kd [1] [µM] | Kd [2] [µM] | percent decrease of the interaction relative to wild-type PC-TP [3] [%] |
| --- | --- | --- | --- |
| B1 | 4.23 | ~2.4 |  |
| B2 |  |  | ~45 |
| B3 |  |  | ~45 |
| B4 |  |  | ~45 |
